{"source": "patent US20190375786A1", "about": "“STABLE PEPTIDES AND METHODS OF USE THEREOF” (Fred Hutchinson Cancer Research Center, priority 2016, published 2019)", "key": {"[1]": {"test": "SYPRO Orange melting assay", "type": "physicochemical", "details": "heating from 20° C. to 95° C.", "procedure": "Protein secondary structures were assessed using Circular Dichrosim (CD). CD spectra were measured with a Jasco J-720W spectropolarimeter using a 1.0 mm path length cell. Protein samples in 10 mM phosphate buffer (pH=7.4) were at 25-30 μM protein concentration. Samples were analyzed at wavelength ranges of […]. Data were expressed in terms of relative ellipticity [θ]; (mdeg). To determine thermal stability of proteins, samples were subjected to incremental increase in temperature at a ramp of 2° C./min from 20° C. to 95° C. Stability and protein unfolding were monitored at 220 and 215 for α-helix and β-sheet secondary structures, respectively. Data are expressed in terms of relative ellipticity [θ], reported in mdeg. For SEQ ID NO: 43 and its point mutant variants, no changes to the α-helix-dominated structure were observed upon heating up to 95° C. […] Additionally, protein melting temperature (Tm) determination was performed by monitoring protein unfolding using SYPRO Orange dye (Molecular Probes). In brief, 0.1 mg/mL protein sample in 20 μL total volume PBS buffer were mixed with 24, of 10× SYPRO Orange dye. Dye intercalation into the hydrophobic protein core following protein unfolding was assayed using the C1000 Touch Thermal Cycler with CFX96 Deep Well Real-Time System (BioRad). Samples were heated from 20° C. to 95° C. with stepwise increments of 0.5° C. per minute and a 5 sec hold step for every point, followed by fluorescence reading. Tm were calculated by analyzing the derivatives of Relative florescence Units (RFU). FIG. 17D illustrates this SYPRO Orange melting assay of Peptides."}, "[2]": {"test": "Resistance to reduction by DTT, RP-HPLC", "type": "physicochemical", "details": "10 mM DTT; HPLC vs non-reduced peptide", "how_it_was_run": "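Peptide (12.5 μg from a 2 mg/ml stock, or 0.015 mM final in PBS) was held 30 min at room temperature with or without 10 mM DTT. Reduced and non-reduced forms were compared by C-18 RP-HPLC using a 5–45% acetonitrile/0.1% TFA gradient over 10 min, with detection at 214 and 280 nm.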"}}, "data": [{"sequence": "GSPDEYIERAKECCKKQDIQCCLRIFDESKDPNVMLICLFCW [SEQ ID NO: 43]", "values": [{"measurement": "melting temperature (Tm)", "setting": "[1]", "result": "no melting temperature could be determined"}, {"measurement": "resistance to reduction by DTT (in words)", "setting": "[2]", "result": "partially resistant"}]}]}
